In series [1] the test system is tobacco plants. Description: Herbicide spray tests of GAT expressing tobacco plants. Conditions: transgenic GAT tobacco; for plant response two weeks after glyphosate spray: 0.5, 2 or 4× glyphosate (1× = 32 oz/acre of 40% ai); for survival after second spray: 8× glyphosate dose three weeks later. In kind it is in vivo, Nicotiana tabacum. As to the method: Tobacco shoots generated as described in EXAMPLE 9 were excised from the explants and transferred to basal root induction (BRI) medium composed of half-strength Murashige and Skoog (MS) medium, pH 5.7, with 1.5% sucrose, 0.3% Gelrite, 0-200 uM glyphosate and 400 ug/ml Timentin. Rooted plants and axillary shoots were clonally propagated by cutting the stem and transferring it to fresh BRI medium until the desired number of clones was obtained. Rooted plants were carefully removed from the solid medium. Prior to placing the plants into small pots of soil, the roots were washed to remove any remaining Gelrite. A protective plastic cover was kept over the plants for at least one week until the plants were well established.
To determine if GAT expressing tobacco plants could tolerate simulated field rate sprays of glyphosate, clonal lines of several events per GAT variant were tested. A typical test was set up as follows: One clone from each event was sprayed with 1 ml of solution containing the isopropylamine salt of glyphosate (Sigma P5671) and 0.125% Triton X-100, pH 6.8 such that the amount of active ingredient sprayed was equivalent to that present in commercial glyphosate products. For example, to achieve 32 oz/acre (1×) of herbicide containing 40% active ingredient (“ai”), 2.4 ul of 40% ai formulation was diluted into 1 ml water and sprayed on a plant in a 4-inch square pot (16 in^2). A mock application (0×) with surfactant only was also included. In some cases a second spray was applied 1-4 weeks later. Plants were kept in controlled growth rooms at 25° C. and 70% humidity with 16 hr light.
Seed-grown wild type plants were also sprayed. […] All 0× plants were healthy, including the non-GAT control plants. Three weeks later all of the surviving plants were sprayed with an 8× dose.

A short description of series [2]: Transfer of the propionyl group from propionyl CoA to glyphosate (DTNB). It is filed as biochemical. The following applies: 1 mM propionyl CoA, 5 mM glyphosate or no glyphosate, 30 minutes. The method, then:
The ability of GAT variants (B6 (SEQ ID NO:7), 0—6D10 (SEQ ID NO:448), 17-15H3 (SEQ ID NO:601), and 20-8H12 (SEQ ID NO:816)) to transfer the propionyl group from propionyl CoA to glyphosate was tested in reaction mixtures containing 5 mM glyphosate or no glyphosate. Propionyl CoA was present at 1 mM. After 30 minutes the reactions were terminated and the presence of free […] was determined by the addition of DTNB.

Series [3] can be described thus: Standard protocol for determination of kcat and KM (continuous spectrophotometric assay, Acetyl CoA hydrolysis at 235 nm). In kind it is biochemical. The following applies: purified protein; about 23° C.; 20 mM HEPES pH 6.8, 10% ethylene glycol, 0.2 mM acetyl CoA. In outline:
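KM from initial rates over 0.125–10 mM glyphosate, fitted by Lineweaver-Burke transformation of Michaelis-Menten; kcat/KM computed as kcat divided by KM. Continuous spectrophotometric read of acetyl-CoA hydrolysis at 235 nm.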

In series [4] the test system is soybean plants. Briefly: Greenhouse glyphosate spray of T0 soybean plants expressing GAT transgenes (discoloration score). It is filed as in vivo. As to the method:
Soybean plants expressing GAT variant transgenes were produced using the method of particle gun bombardment (see Klein et al. (1987) Nature 327:70-73) using a DuPont Biolistic PDS1000/He instrument. The selection agent used during the transformation process was hygromycin. Either the hygromycin selectable marker gene remained in the transgenic events or the hygromycin gene was excised by methods known in the art. DNA fragments were prepared with a synthetic constitutive promoter, a GAT variant and PinII terminator. The selectable marker gene, comprising the 35S CaMV promoter, HPT gene and NOS terminator, was cobombarded with the GAT gene variant as described above. Bombarded soybean embryogenic suspension tissue was cultured for one week in the absence of selection agent. Embryogenic suspension tissue was placed in liquid selection medium for 6 weeks. Putative transgenic suspension tissue was sampled for PCR analysis to determine the presence of the GAT gene. Putative transgenic suspension culture tissue was maintained in selection medium for 3 weeks to obtain enough tissue for plant regeneration. Suspension tissue was matured for 4 weeks using standard procedures; matured somatic embryos were desiccated for 4-7 days and then placed on germination induction medium for 2-4 weeks. Germinated plantlets were transferred to soil in cell pack trays for 3 weeks for acclimatization. Plantlets were potted to 10-inch pots in the greenhouse for evaluation of glyphosate resistance.
To determine the level of glyphosate resistance of transgenic soybeans expressing the GAT variant transgenes, T0 plants were sprayed with glyphosate (Roundup ULTRA MAX™) in the greenhouse. Plant resistance levels were evaluated by […] • 7=minor leaf/stem discoloration • 5=worse leaf/stem discoloration • 3=severely discolored plant or dying plant • 1=dead plant
One to four plants were sent to the greenhouse from each independent transgenic event. An additional 1-2 plants per event were grown in controlled environment growth chambers for seed production and were not sprayed with glyphosate. The greenhouse plants were sprayed at 1×, 2× or 4× glyphosate (1× glyphosate=26 ounces/acre of RoundUp ULTRA MAX™) 3-4 weeks after transfer to soil. The T0 plant discoloration scores with 2× and 4× spray rates are shown in Table 10 and Table 11, respectively.

Series [5] deals with maize plants. Briefly: Effect of temperature variation on glyphosate tolerance of T1 maize expressing GAT transgenes. It is filed as in vivo. The following applies: cool/cold, warm and hot conditions; 0×, 4×, 6×, 8× at V2; scored at 5 and 14 days. The method, then: Maize plants expressing GAT variant transgenes 10—4F2 (SEQ ID NO:202), 17-15H3 (SEQ ID NO:549), and 18-28D9b (SEQ ID NO:814) were produced using the methods described in Example 13. The effect of temperature on glyphosate tolerance was evaluated in T1 plants. The T1 plants were grown in cool/cold (day 14° C., night 8° C.), warm (day 28° C., night 20° C.), and hot (day 37° C., night 20° C.) conditions. T1 plants were sprayed at V2 with four different glyphosate spray treatments (0×, 4×, 6×, and 8×). Plants were scored at 5 and 14 days after treatment for leaf discoloration and plant height comparisons as described in Example 13.

Setting [6] is: 10 days after 2X glyphosate, count in parentheses.

Positions count from the first letter of the chain named.

B1: SEQ ID NO: 190: evolved GAT gene (nucleic acid)
DNA: ATGATAGAGGTGAAACCGATTAACGCAGAGGATACCTATGAACTAAGGCATAAAATACTCAGACCAAACCAGCCGATAGAAGCGTGTATGTATGAAAGCGATTTACTTCGTGGTGCATTTCACTTAGGCGGCTTTTACAGGGGCAAACTGATTTCCATAGCTTCATTCCACCAGGCCGAGCACTCAGACCTCCAAGGCCAGAAACAGTACCAGCTCCGAGGTATGGCTACCTTGGAAGGTTATCGTGATCAGAAAGCGGGATCGAGTCTAATTAGACACGCTGAACAAATTCTTCGTAAGAGGGGGGCGGACTTGCTTTGGTGCAATGCGCGGACATCCGCCTCAGGCTACTACAAAAAGTTAGGCTTCAGCGAGCAGGGAGAGATATTTGATACGCCGCCAGTAGGACCTCACATCCTGATGTATAAAAGGCTCACA
modifications: Synthetic DNA Sequence; 0_5B8
notes: evolved GAT gene
For the molecule B1, in series [1], the “plant response two weeks after glyphosate spray” value is “survived the spraying procedure without signs of glyphosate damage” and the “survival after second spray” value was “all GAT plants survived”.

B2: SEQ ID NO: 448: GAT polypeptide (protein)
chain: MLEVKPINAEDTYELRHKILRPNQPLEVCMYETDLLRGAFHLGGFYRGKLISIASFHQAEHSDLQGQKQYQLRGMATLEGYRDQKAGSSLIRHAEQILRKRGADMLWCNARTSASGYYKKLGFSEQGEVFETPPVGPHILMYKRLT
modifications: 0_6D10
notes: GAT polypeptide
Regarding B2, the “transfer of propionyl group to glyphosate” value (“transfer of propionyl group” below) in series [2] is on record as “glyphosate-dependent hydrolysis of propionyl CoA”. The molecule also registered a Kcat in series [3] of 1.85 s⁻¹.

B3: SEQ ID NO: 193: GAT gene variant (nucleic acid)
DNA: ATGCTAGAGGTGAAACCGATTAACGCAGAGGATACCTATGAACTAAGGCATAGAATACTCAGACCAAACCAGCCGATAGAAGCGTGTATGTATGAAAGCGATTTACTTCGTGGTGCATTTCACTTAGGCGGCTATTACAGGGGCAAACTGATTTCCATAGCTTCATTCCACCAGGCCGAGCACTCAGAACTCCAAGGCCAGAAACAGTACCAGCTCCGAGGTATGGCTACCTTGGAAGGTTATCGTGAGCAGAAAGCGGGATCGAGTCTAATTAAACACGCTGAAGAAATTCTTCGTAAGAGGGGGGCGGACTTGCTTTGGTGTAATGCGCGGACATCCGCCTCAGGCTACTACAAAAAGTTAGGCTTCAGCGAGCAGGGAGAGATATTTGAAACGCCGCCAGTAGGACCTCACATCCTGATGTATAAAAGGATCACATAA
modifications: Synthetic DNA Sequence; 0_5D3
notes: GAT gene variant
B3: in series [1], the “plant response two weeks after glyphosate spray” value is “survived the spraying procedure without signs of glyphosate damage” and the “survival after second spray” value is “all GAT plants survived”. For the same molecule, the “% EVENTS @ 7-8” value in series [4] (10 days after 2X glyphosate (1× = 26 ounces/acre), 7=minor leaf/stem discoloration) came to 15%. The “% EVENTS @ 3-6” value in series [4] (10 days after 2X glyphosate, 5=worse discoloration, 3=severely discolored or dying) turned out to be 11%. Also, in series [4] (setting [6]), the “number of events @ 3-6” value is listed as 3 and the “number of events @ 7-8” value was determined as 4.

B4: SEQ ID NO:202: GAT variant transgene (nucleic acid)
DNA: B3 DNA with A92T, A134T, A275G, T313A, A433C
modifications: Synthetic DNA Sequence; 10_4F2
notes: GAT variant transgene
As to B4, the “effect of temperature on glyphosate tolerance” value in series [5] is reported as “glyphosate tolerance is not adversely effected by the range of temperatures tested”.

B5: SEQ ID NO:601: GAT variant polypeptide (protein)
chain: MIEVKPINAEDTYELRHRILRPNQPIEACMFESDLLRGAFHLGGYYGGKLISIASFHQAEHSELQGQKQYQLRGMATLEGYREQKAGSSLIKHAEEILRKRGADLLWCNARTSASGYYKKLGFSEQGEVFDTPPVGPHILMYKRIT
modifications: D_S00260796_17-15H3
notes: GAT variant polypeptide
For the molecule B5, the “transfer of propionyl group” value in series [2] was “glyphosate-dependent hydrolysis of propionyl CoA”.

B6: SEQ ID NO:816: GAT variant (protein)
chain: B5 chain with I19V, M30I, L36M, Y45F, K49R, I53V, I91V
modifications: Synthetic DNA Sequence; CDS (1)...(441); 20-8H12c
notes: GAT variant
On to B6, for which, in series [2], the “transfer of propionyl group” value is on record as “glyphosate-dependent hydrolysis of propionyl CoA”.

Source of the values: US8008547B2, “Glyphosate-N-acetyltransferase (GAT) genes” (E.I. duPont de Nemours, priority 2000, dated 2011).
